{"source": "paper PMC10127185", "about": "“Low complexity domains of the nucleocapsid protein of SARS-CoV-2 form amyloid fibrils” (Nature Communications, 2023)", "proteins": {"B1": {"name": "NCAP steric zipper segment 217AALALL222 (peptide)", "peptide": "AALALL", "notes": "Nucleocapsid protein (NCAP) of SARS-CoV-2, residues 217-222, within the central LCD; also called H-AALALL-OH"}, "B2": {"name": "NCAP steric zipper segment 179GSQASS184 (peptide)", "peptide": "GSQASS", "notes": "Nucleocapsid protein (NCAP) of SARS-CoV-2, residues 179-184, within the central LCD; non-phosphorylated peptide"}, "B3": {"name": "NCAP steric zipper segment 243GQTVTK248 (peptide)", "peptide": "GQTVTK", "notes": "Nucleocapsid protein (NCAP) of SARS-CoV-2, residues 243-248, within the central LCD"}}, "key": {"[1]": {"target": "the molecule itself", "test": "crystal structure; AALALL form 1: batch, peptide in water, acetonitrile and TFA about 45:45:10; needle crystals; 1.12 Å"}, "[2]": {"target": "the molecule itself", "test": "crystal structure; GSQASS 100 mg/mL in water, hanging drop, 20 °C, 1.0 M Na,K tartrate, 0.2 M Li2SO4, Tris pH 7.0; needle crystals; 1.30 Å"}, "[3]": {"target": "the molecule itself", "test": "crystal structure; GQTVTK 68 mg/mL in water, hanging drop, 20 °C, 2.0 M (NH4)2SO4, 0.1 M sodium HEPES pH 7.5, 2% v/v PEG 400; 1.10 Å"}}}
{"protein": "B1", "values": [{"measurement": "binding result", "setting": "[1]", "result": "binds"}]}
{"protein": "B2", "values": [{"measurement": "binding result", "setting": "[2]", "result": "binds"}]}
{"protein": "B3", "values": [{"measurement": "binding result", "setting": "[3]", "result": "binds"}]}
